Measured values taken from article PMC9329571, “Regulation of TIA-1 Condensates: Zn2+ and RGG Motifs Promote Nucleic Acid Driven LLPS and Inhibit Irreversible Aggregation”.

B1: TIA-1 RRM2,3 (amino acids 93-274), wild type [not stated] / itself (parent)
chain: NHFHVFVGDLSPEITTEDIKAAFAPFGRISDARVVKDMATGKSKGYGFVSFFNKWDAENAIQQMGGQWLGGRQIRTNWATRKPPAPKSTYESNTKQLSYDEVVNQSSPSNCTVYCGGVTSGLTEQLMRQTFSPFGQIMEIRVFPDKGYSFVRFNSHESAAHAIVSVNGTTIEGHVVKCYWGK

Variants of: B1
Assay: turbidity (A385 nm)
Conditions: with itself; TIA-1:ZnCl2 ratio 1:8; 20 µM protein; 20 mM HEPES, 50 mM NaCl, 1 mM TCEP, pH 6.9, 25°C, within 30 min incubation under shaking; read off a plot
A response of 0.058 A.U was found for chain 1 H2A in this work.
A response of 0.056 A.U was found for chain 1 H2A H4A in this work.
A response of 0.072 A.U was found for chain 1 H4A in this work.
